For the test, the target named is T1, Noggin (UniProt Q13253 28-232, limits assumed).
T1 sequence (looked up): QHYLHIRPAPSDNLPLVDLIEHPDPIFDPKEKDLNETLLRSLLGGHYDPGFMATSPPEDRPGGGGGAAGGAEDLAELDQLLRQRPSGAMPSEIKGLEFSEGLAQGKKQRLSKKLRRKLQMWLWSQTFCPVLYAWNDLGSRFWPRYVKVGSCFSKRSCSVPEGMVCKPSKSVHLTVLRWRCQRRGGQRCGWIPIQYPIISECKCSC
The test can be described thus: size-exclusion chromatography of the AB204 and Noggin mixture.

B1: AB204 (ligand)
chain: MQAKHKQRKRLKSSCKRHPLYVDFSDVGWNDWIIAPSGYHANYCDGECPFPLADHLNSTNHAIVQTLVNSVNSKIPKACCVPTKLRPMSMLYYDDGQNIIKKDIQNMIVEECGCS
notes: also called Noggin-insensitive chimera AB204
For B1, the binding result is reported as “no binding”.

(Values after patent US20210395322A1 (OSR, published 2021).)
